Literature values as cited in US20060110594A1, “Polymer-coated substrates for binding biomolecules and methods of making and using thereof” (priority 2004, published 2006).

Details: isoelectric point, listed property

B1: Myoglobin: protein immobilized on EMA, 17.6 kDa (protein, UniProt P68082 2-154, looked up)
Myoglobin: GLSDGEWQQVLNVWGKVEADIAGHGQEVLIRLFTGHPETLEKFDKFKHLKTEAEMKASEDLKKHGTVVLTALGGILKKKGHHEAELKPLAQSHATKHKIPIKYLEFISDAIIHVLHSKHPGDFGADAQGAMTKALELFRNDIAAKYKELGFQG
modifications: immobilized on EMA
notes: protein immobilized on EMA, 17.6 kDa
pI: 7.2
